From the DeepSol protein solubility set

Test: soluble on expression in E. coli; label from the status in PepcDB or PDB records

With “MAHVAFNLLHLPAKTLRNVFQLMSHSELFIFSFASICAKRLVKSMNFEMLELDLVYSRPCKLKISFGEHEEFIIEFDEFGTLSKQEPSDAFVFLIAYKLDIRDCINHVLEVYKISKLHTLKVIGAINNPQNLLKIIGKLDLKVLWIFFNFSENSTTISVYREILNHLGARCDVRSLRRGFYDKEPQKSFFLLRLSLSYALSQEPHSRPTATLAARRLKRRQDTQPLDATTSVLMLRSCRTVGRGTSLPTHPPFSFVIAPHYYSCTCSDIQGEPDKLQ” the “soluble on expression in E. coli” value was “not soluble”.
With “MKKLIVDLDGTLTQANTSDYRNVLPRLDVIEQLREYHQLGFEIVISTARNMRTYEGNVGKINIHTLPIITEWLDKHQVPYDEILVGKPWCGHDGFYIDDRAVRPSEFASMNLEEIHQLFEKEKSCS” the “soluble on expression in E. coli” value was “soluble”.
With “MTKEVLIHQIIDVLARAGFALSDRCNIRPRSFDVAARKDDTLLLCKVLFNIDGLNEETAREMKYLAEYLGGSAIVVGAKTRDQMLEDSVVYMRYDILALSVQTLYDYFVENIRPLVSAAPGGLYVSIEGDLLKKARTTQSMSLGTLASMVGVSRRTISKYEEEGMDASIDVVLHLEDIFGVELAKPIDILKSCGSRKPRKKAEPEKEEPKGKPGTLLPEDLILNTISMLGYDVLPTAQAPFKAISRDKSSVILTGVSEFNTTVIKRAHLMSSISCITETQSVFIINGRSKLKSVENTVLIEKKELDTISDSQELLDFIEERKDTHEA” the “soluble on expression in E. coli” value was “not soluble”.
With “MGSDKIHHHHHHMTPRISQKEVNDAVWNACDTFRGVVDASAYKDYVLTMLFLKYISDVWQDNYDTYKAEYGDAPELIEEMMKNERFVLPKDASFYALYERRFEAGNGERIDKALHAIEEANMGKLNDVFQDISFNSTKLGDDKQKNDILRHMLEDFSKPELNLRPSRIGNLDIIGNAYEFLIKHFAASSGKKAGEFYTPPEVSQLIAELVNPQEGDEICDPACGSASLLMKCAKLIKDRFGNRKYALYGQEAIGSTWSLAKMNMFLHSEDNHRIEWGDTLRNPLLLDGDDHLKHFDIVVANPPFSLDKWGHEAAEADRFGRFRRGIPPKTKGDYAFILHMIETLKPGTGRMGVVVPHGVLFRASSEGEIRKQLIKENLLDMVIGLPEKLFYGTGIPAAILVFRKNKKDNNVLFIDASREYQDGKNQNFLRDEDIQKVLDTAKARESVDKYAYLATLEEIRENDFNLNIPRYVDTFEEEEEIDLEAVLKERKELKADLAKLEVEMEGYLKELGYLTGEE” the “soluble on expression in E. coli” value was “not soluble”.
For “MSLAILPPDSLETALSQAQQATQAALQAGKNRLQIEILLPDLNPMGLAAGYLPLFAELGSDLKVFFADAGSAALARREWGETAYSVRGVNERLTPIEASDRAIVIVAPTPVEVTAIEQMCLTAGDRPFIMLNPRLQDVAVVGIGYAGRQLRERFLNTLEPCYYLRPLAETVILWRCYPQAWQIWQYRETAPTCLAEFEQRPTSEDIERALSALGKPRAQSFLSRLSALLRALQSEGHHHHHH”, the “soluble on expression in E. coli” value was “soluble”.
For “MIKQVIQQLRVPDAGIENLQERRYWLQCERAYTYQPIYQTDGRLMAVELLTVVTHPDNPSRRIAPDRYFAELAVRHRIDVVKEQLHQLEQKADFFTRHHLLASVNVDGPTLIAMRRQPDILAAMERLPWLRFELVEHIRLPKDSSFASMCEFGPLWLDDFGTGMANFSALSEVRYDYIKVARELFVMLRQSPEGRNLFTLLLQLMNRYCRGVIVEGVETLEEWRDVQRSPAFAAQGYFLSRPVPLISLEEVILTL”, the “soluble on expression in E. coli” value was “not soluble”.
In the case of “MGSDKIHHHHHHMTIELTPPPKKNPQKRSTSATRPPEARSRAALGLSAAAAEGRFALQVCAECQAVQYPPRDACAACIGTDLVWQDISPDGHLLAETTIQTSTKLFFRERAPWRMGSVKLTAGPVVLCHVHGDCTRGGPVKILNRLDKSGQAVLIAIPPERTEHMDDDPQLRAMSANPKHRRILITDAWNPNTPALAKALLEAGAATIFVGEAESWRPHPNRDTLAGMENVDILPLDVTDTASVQTLAGEIGGKTDILINNARFMRPGGVLARGDTGFARDEMEVNYLGLMRLAQAFGPGMCARMADGVNSAAAWVNILSAHALSNAPDYGCFSASNAAAYSLSQSLRGEFRSAGLRVMNVFVGPTDDDWYAPLPPPKVLPTGLARSVVDGLRDGLEDVWCGDIAKDMRDRWRRDAKVLEREMTFGSEGA”, the “soluble on expression in E. coli” value is reported as “not soluble”.
With “MGSDKIHHHHHHLIKNILIMAANGQISRLIENQILNDDQFANVHLTLFLRHQSRLAQLAKNPRVTLIEGSLDRLDDVKKAMVDQDLVFIGVVDHSKGSQQTQNVIAGMKAGHVQRVIYTNVLGIYDEVPGTFGKWNKATIGNGLPSALKSDQLLEQSGLDYTTLRLPWLNDRDVKYQLTHKDETYVGVSGSRKSVADVVLKIIADPDYLKNDSVGIADPDTAGSDRLVY” the “soluble on expression in E. coli” value was “not soluble”.
For “MGSDKIHHHHHHMWTEIDTQISRVTGERFQSQQRRSVSGGCINQGYAVADGTLTYFVKLNQASQVAMFEAEALGLEQMLTTNSIRVPKPICWGIAGNSGYIVLEWLEMGSGNTNSWEEMGRNLAKMHKATSQKGYGWDMNNTIGSTPQINTWTEDWTEFYSKHRLGYQFQLARRRGGSFPKQDELLGALPELLADHEVQPSLVHGDLWGGNAGCTVSGEPVIFDPATYFGDREVDIAMTELFGGFPAAFYKGYNQVFPLDAGYEKRKTLYNLYHILNHFNLFGGGYASQANRMIEQILR”, the “soluble on expression in E. coli” value was “not soluble”.
For “MGSDKIHHHHHHMATLETLDLSAGFAADLVQATEADAVTGYRRFHLGAFAFQRDEYFVKISWPAKGSTRTHAIPADAFLRAMMRDVAWGFFYGWVNFDHVFGTRNHYGKVDVYAGTFNGILKEAGVDYTETFETPTIMATFKAMLHDWTNEGFDPFAAPEETGTAFGRKHGENGAAIERTRIATRRMPGLEGDSPLRDELPVNRAFRDVGQDEPEVHVKPGFEGELHAFNLFKYLSRSDVTWNPSVTSVCGRSLFCPTTEEFILPVFHGNDRVEWFLQLSDEIVWDIGDKNTGAPRARITMRAGDICAMPADIRHQGYSTKRSMLLVWENATPDLPQRYESGELAPYPIAF”, the “soluble on expression in E. coli” value was “not soluble”.
With “MSLYKTADGREIFIVDAHTHFWDGSPENQRNIHGKQFVDCFYAYHSALSPPEEKWEKSRFEKYSEDDIYRDLFVDGPDDMAIIQTTVLGDFYKTGFGCIERSTRMAARNPGRFIVNGAFDPRDGEKALEYIHYMKETHDITGVKLYTAEWHGDSRGWKLTDPAAYKCFELCDKLGIRNMHVHKGPTIIPLSKDSFSVGDVDDAATDFQGLNWIVEHCGLPRLDDFCWIAVQETNVYGGLAVALPFIHTRPRYFAEVIAELLFWLGPDKILFGSDYAIWTPKWLVDRFWNFQIPEDIAAERGVQLTDEIKEKILGLNAARLYGIDVDAKRRDFADHPVLIAAEGHHHHHH” the “soluble on expression in E. coli” value was “soluble”.
For “MKVGIDAGGTLIKIVQEQDNQRTFKTELTKNIDQVVEWLNQQQIEKLCLTGGNAGVIAENINIPAQIFVEFDAASQGLGILLKEQGHDLADYIFANVGTGTSLHYFDGQSQRRVGGIGTGGGMIQGLGYLLSQITDYKQLTDMAQHGDRNTIDLKVRHIYKDTEPPIPGDLTAANFGHVLHHLDADFTPSNKLAAVIGVVGEVVTTMAITVAREFKTENIVYIGSSFHNNALLRKVVEDYTVLRGCKPYYVENGAFSGAIGALYLEKLEHHHHHH”, the “soluble on expression in E. coli” value was “soluble”.
For “MASFVEMRKLAEAKVQNMIRTIVKPKEQNGNVEPKKEEDEKFESTYKQNENTQITPSSFGKRPLYSKVDINCDKWLMTLDEESRLKIDNPPSLVDGLSKETESELRYLGCELIQQGAILLKLPQTAAATGQILFQRYYYQKSFVRYHFEHAVQACLLLASKIEEEPRRPREVYNVFHRLERLHRLQQSGHDINKRLEAKHGSSILRCFG”, the “soluble on expression in E. coli” value was “not soluble”.
With “MITIEKYSPERHEQTCELSVLEEQSQFTVADVGEMLTRLEPTELPHLILADDDVVGFFLFDAAYSEKYDFCPKNSLGVRALLVDHRHQGKGIAKQAIQQFADFAKHHYPEFDALYLTVNCRNIPAYQCYLKSGFEDTNELYHGGPVGPQHIMRQPL” the “soluble on expression in E. coli” value was “not soluble”.
For “MSLAVTLKDVAEACGVSYSTVSKALKNSQLVKPNTKQMIQQKALEMNYIPNHSARALVSKKSGTIGLIWPSVDRVAVTHLITEINLAIKSLGYVMFVSIDDVAAASKKFVEFGCDGIIIFDEDETTNLPPEIYNNVPVVAYGVDRDIPYPIVNVNHAEAMIIAIKELLAKGIDRIDYIGDIHTNDARQIAKKDAIANYCEQHHIQYRMIDSSGLNAIEAETSVKHFLQESSLAPGVICGSYDITVGTINAMGSDEQPIIYSYDNIPQIKKIDYPVQAIGVPTAEIAQQVVAILDKVIKGEPIENTYHLHPSLSHNQEGHHHHHH”, the “soluble on expression in E. coli” value was “soluble”.
In the case of “MNYVERYIEQFLRATVRNNIKHYLLMLDEKMKNLDDYMRYLITKKEQLSKLIDSLMLTLENKYIDIAEAFQIQCAREINNQEIENIKSELNKVEAYYAQIETQIQQTSTEKIATEKTSYLINYMNAVALEHHHHHH”, the “soluble on expression in E. coli” value is reported as “soluble”.
For “MSRQACKKSFSCGSQGFSGHSAVVSGSSRSSCVARSGAASGGACGFRSGAGSLGSHSLYSLGGSKSISISVAAGGSRAGGFSGGRSSCGSGFGSGYGGSLGGSRGMGAGFGGPSGFGGAGGFGRPGSFGPGSCPGGIQEVTINQSLLQPLNVEIDPQIGQVKAQEREQIKTLNNKFASFIDKVRFLEQQNKVLETKWELLQQQTIRSGSGPQNLEPFFESCISCLRKQLDSLLGAKGSLEGELKSMQDLVEDFKKKYEEEINRRTAAENEFVGLKKDVDGAFMNKVELQAKVDSLTDEINFLRTLYDMELSQIQSHVSDTSVVLSMDNNRCLDLDSIIAEVKAQYEDIAQKSKAEAEALYQTKLGELQTTAGRHGDDLRSTKSEIMDLNRMIQRLRAEIENVKKQNTNMQTSIAEAEQRGERALKDADTKFQYLQVALQKAKEDMARLLKEYQELMNVKLALDVEIATYRKLLEGEECRLSGEFQNAVSISVVSNVTSTSSSGSFRGTGGSNYGGDSSGRSGGSSSSSSRGSSSRGSSGSRLGSGGSISVSQQRMGFNSGGSQTSVGSSYKSGRGGSSSVQFSQTTSSSQQRSK”, the “soluble on expression in E. coli” value was “soluble”.
For “GPGSMPPPAPPALEKKTAAGVEVDLTKMVLDTSSFLRASAQRPSMRYPSRASVSNSAFISAQEYDDLRARYSQAKRELLKVSDIQKDLDFARFELTRSQEEMKLLRASNHNLKNEVEEYVQRAEKEHKARMSLEAKMSAEGATRTEEIEFLKKTIDELRAENAKRLDYMTQQQEDEFQARLQSMREELAGAAEELARLTAEAAQAQKARELSESKLTAALTDLEKSRAVVDDCKARIDALQKECHALEQQHRDFVQQQERQNAAYLEEQKALNEERVHQVAESKNAAIAEMQEELHLWKEKTKTTAEELAAARHAASQLQDDVKQLTADRAKEVRRLAEEHRLALCELQLQMEAAIREARGSKTSLEEEAQSLRRQLAQVSTELSTVAGVLAQRERQLAKAEEELLRTKDRCVAAEQENAQLASDAQLNAEAADEAAARVERLMRQNSDMEEEFSKDLREAKDRIRTLEATLMQSKGELSALRKEQIKSADDGLAATRDLRAQAEALMEECTALKAQAGERRRLEEMARDYCQRFEAERTKVGTLEAELSAAVGRCTAVEAKLEELSRRVISQAVSRSPMQTLHPNATAASLSCHGKHRSVSSGQSYAPTGGSSMKRARTEDARVFAISGFDGNDVLLAVKQLPNVAIAECKSNMPVPSNLTHLITNGQLTIKLLTALVRGCWVLPESYVVDSLKEQTWLREEDYGFQHEEPPLLKKRIALTEAFMACKHYSTASLLLKEGGAILVDDPEQADILLCTNAEARSTQNGWNWEKMVEIIYPLKIQ”, the “soluble on expression in E. coli” value was “soluble”.
For “MRVLITGGNRGLGLQLVKVFHENGHIIYPLVRTEVAVTQLKQMFSCRCFPILADLAADESTEQIKKQLEEYTEYMDLVINNAGITGKETEVLHTNSEELTDLFNIHCLGVIRAVKGTYMALAKSDHPRIINVSSRLGSLHKMANKEFPQGHFSYSYRIAKAAQNMLTLCLQQEFENKGISVTAIHPGKLKTEIGAFDANMTPAEGTKNIYDWVIDSNEDLSGQFIEPGVGEIKW”, the “soluble on expression in E. coli” value was “not soluble”.
